Test results: article PMC6278376, “Dynamics-Derived Insights into Complex Formation between the CXCL8 Monomer and CXCR1 N-Terminal Domain: An NMR Study” (Molecules, 2018)

What was measured:
[1] = molecular target: T1, CXCL8 monomer (residues 1–66) (disulfides Cys9-Cys50 (printed) and Cys7-Cys34 (by convention), mature numbering; mature residue 1 = precursor 28 (offset +27), matching PDB 5WDZ entity 1 (66 aa); 15N-labelled for NMR); test: ITC; 890 μM CXCR1 N-domain peptide injected into 80 μM CXCL8 monomer; 50 mM sodium phosphate pH 6.0, 25 °C; single-binding site model; conditions: both partners purified
T1 sequence (chain, as listed by the source): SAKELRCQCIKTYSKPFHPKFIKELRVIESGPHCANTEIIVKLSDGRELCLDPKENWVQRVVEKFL

[2] = molecular target: T1, CXCL8 monomer (residues 1–66); test: NMR titration; 200 μM 15N-CXCL8 titrated with unlabeled CXCR1 peptide (2.5 mM stock, molar ratios 0 to 8.4); 2D 1H-15N HSQC; shift changes fit to a 1:1 model for KD; line shape analysis (Bloch–McConnell, two-site exchange) for koff, kon = koff/KD; 50 mM sodium phosphate pH 6.0, 30 °C; conditions: both partners purified

B1: CXCR1 N-domain peptide corresponding to the first 29 amino acids (29mer) (peptide, UniProt P25024 1-29, looked up)
chain: MSNITDPQMWDFDDLNFTGMPPADEDYSP
notes: CXCR1 receptor, N-terminal domain, first 29 amino acids (M1, S2 ... S28 named in the text); human by the discussion's contrast with the rabbit peptide; Recombinant peptide; 15N-labelled where it was the observed species in NMR, unlabelled otherwise; also called CXCR1 N-domain 29mer; CXCR1 N-terminal domain; source: E. coli BL21(DE3), purified
In the case of B1, the Kd [1] is reported as 8.4 ± 0.5 µM, the dH [1] is reported as -2.6 ± 0.2 kcal/mol and the “stoichiometry N” value [1] is reported as 0.93 ± 0.03. For the same binder, the Kd [2] was ~5 µM.
